The supplement of paper PMC9112550, “Optimization of the antimicrobial peptide Bac7 by deep mutational scanning” (BMC Biology, 2022)

system: Escherichia coli TOP10; assay: shrunken log2 fold change of peptide-encoding DNA abundance (4.5 h post-induction vs induction); higher = less antimicrobial activity (less host growth inhibition); settings: time post-induction: 4.5 h; library: site-saturation at positions 5, 18, 19, 20
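Also: peptides expressed intracellularly from a pBAD plasmid library in pooled LB shake-flask culture, induced with 0.3% L-arabinose, DNA abundance read by NGS, three biological replicates, DESeq2 with apeglm shrinkage.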

Sequence | shrunken log2 fold change
RRIRWRPPRLPRPRPRPQAPPRP | -0.164
RRIRMRPPRLPRPRPRPMHKPRP | 0.413
RRIRFRPPRLPRPRPRPIDVPRP | -0.146
RRIRFRPPRLPRPRPRPDNSPRP | -0.726
RRIRKRPPRLPRPRPRPRPFPRP | 0.612
RRIRDRPPRLPRPRPRPWAFPRP | -0.01
RRIRARPPRLPRPRPRPDKKPRP | 0.0318
RRIRERPPRLPRPRPRPHKSPRP | -0.0459
RRIRRRPPRLPRPRPRPTLYPRP | 0.595
RRIRHRPPRLPRPRPRPIHNPRP | -0.545
RRIRCRPPRLPRPRPRPICHPRP | 1.48
RRIRFRPPRLPRPRPRPMASPRP | 0.037
RRIRERPPRLPRPRPRPKYWPRP | -0.202
RRIRERPPRLPRPRPRPWELPRP | -0.238
RRIRFRPPRLPRPRPRPCNPPRP | -0.0333
RRIRDRPPRLPRPRPRPGNSPRP | -0.0582
RRIRPRPPRLPRPRPRPMCSPRP | -0.152
RRIRHRPPRLPRPRPRPYNTPRP | -1.01
RRIRFRPPRLPRPRPRPCAMPRP | -0.561
RRIRERPPRLPRPRPRPMAHPRP | -0.0343
RRIRGRPPRLPRPRPRPLRLPRP | 1.34
RRIRGRPPRLPRPRPRPWRHPRP | -0.0287
RRIRMRPPRLPRPRPRPLYSPRP | -1.32
RRIRTRPPRLPRPRPRPEAGPRP | 0.286
RRIRKRPPRLPRPRPRPDCEPRP | 1.96

Sequence | shrunken log2 fold change
RRIRTRPPRLPRPRPRPSYAPRP | -0.274
RRIRWRPPRLPRPRPRPHRCPRP | 0.000478
RRIRRRPPRLPRPRPRPDKIPRP | 0.402
RRIRDRPPRLPRPRPRPHRGPRP | -0.0201
RRIRSRPPRLPRPRPRPWIMPRP | -0.572
RRIRQRPPRLPRPRPRPCGDPRP | -0.0871
RRIRVRPPRLPRPRPRPWPHPRP | -0.103
RRIRHRPPRLPRPRPRPAQNPRP | 0.212
RRIRSRPPRLPRPRPRPNCMPRP | -0.0954
RRIRYRPPRLPRPRPRPCKWPRP | -0.063
RRIRSRPPRLPRPRPRPRAAPRP | 0.504
RRIRTRPPRLPRPRPRPYLNPRP | -0.484
RRIRDRPPRLPRPRPRPFWGPRP | 0.127
RRIRMRPPRLPRPRPRPDMNPRP | 2.25
RRIRVRPPRLPRPRPRPDEWPRP | 0.0467
RRIRERPPRLPRPRPRPRHPPRP | -0.289
RRIRIRPPRLPRPRPRPHWTPRP | 0.0591
RRIRGRPPRLPRPRPRPPWYPRP | 0.26
RRIRWRPPRLPRPRPRPRWMPRP | 0.1
RRIRLRPPRLPRPRPRPSQRPRP | -0.00321
RRIRDRPPRLPRPRPRPTVVPRP | 0.149
RRIRCRPPRLPRPRPRPDKDPRP | -0.0474
RRIRFRPPRLPRPRPRPGKGPRP | -0.159
RRIRQRPPRLPRPRPRPHEEPRP | -0.0442
RRIRERPPRLPRPRPRPPSRPRP | 0.577

Sequence | shrunken log2 fold change
RRIRTRPPRLPRPRPRPGLYPRP | 0.194
RRIRCRPPRLPRPRPRPKCDPRP | -0.135
RRIRRRPPRLPRPRPRPENHPRP | 0.0228
RRIRKRPPRLPRPRPRPAADPRP | 0.941
RRIRGRPPRLPRPRPRPNFGPRP | 0.128
RRIRDRPPRLPRPRPRPDKYPRP | -0.582
RRIRARPPRLPRPRPRPWTNPRP | 0.124
RRIRNRPPRLPRPRPRPHELPRP | -0.0632
RRIRIRPPRLPRPRPRPKDSPRP | -0.273
RRIRFRPPRLPRPRPRPRAAPRP | 0.408
RRIRRRPPRLPRPRPRPPMEPRP | -0.0681
RRIRDRPPRLPRPRPRPVSLPRP | -0.442
RRIRTRPPRLPRPRPRPVCSPRP | -0.247
RRIRIRPPRLPRPRPRPIAPPRP | -0.0686
RRIRKRPPRLPRPRPRPQIPPRP | -0.0346
RRIRIRPPRLPRPRPRPGHTPRP | -0.165
RRIRWRPPRLPRPRPRPTEKPRP | 0.103
RRIRRRPPRLPRPRPRPISGPRP | 0.0239
RRIRTRPPRLPRPRPRPLHPPRP | 0.375
RRIRQRPPRLPRPRPRPAQVPRP | 0.0263
RRIRMRPPRLPRPRPRPWTIPRP | -0.0577
RRIRFRPPRLPRPRPRPVNKPRP | -0.492
RRIRHRPPRLPRPRPRPQPVPRP | 0.259
RRIRLRPPRLPRPRPRPVSAPRP | 0.0663
RRIRLRPPRLPRPRPRPHRYPRP | 0.00601

Sequence | shrunken log2 fold change
RRIRIRPPRLPRPRPRPDYMPRP | -1.09
RRIRGRPPRLPRPRPRPFTVPRP | -0.31
RRIRWRPPRLPRPRPRPEFRPRP | 0.422
RRIRIRPPRLPRPRPRPLRAPRP | 0.367
RRIRQRPPRLPRPRPRPADFPRP | -0.193
RRIRVRPPRLPRPRPRPLHHPRP | -0.253
RRIRYRPPRLPRPRPRPGGTPRP | -0.0623
RRIRFRPPRLPRPRPRPWLYPRP | -1.2
RRIRSRPPRLPRPRPRPQGKPRP | 0.0304
RRIRCRPPRLPRPRPRPIQSPRP | 0.0164
RRIRNRPPRLPRPRPRPTQDPRP | 0.387
RRIRSRPPRLPRPRPRPTVQPRP | -0.204
RRIRTRPPRLPRPRPRPSFIPRP | -0.761
RRIRSRPPRLPRPRPRPYCDPRP | -0.225
RRIRMRPPRLPRPRPRPFWSPRP | -0.123
RRIRKRPPRLPRPRPRPFCTPRP | -0.0968
RRIRWRPPRLPRPRPRPSWMPRP | -0.0675
RRIRTRPPRLPRPRPRPIWNPRP | -0.169
RRIRWRPPRLPRPRPRPRYGPRP | 0.134
RRIRGRPPRLPRPRPRPPTGPRP | 0.741
RRIRDRPPRLPRPRPRPNYCPRP | 0.0253
RRIRDRPPRLPRPRPRPKEMPRP | -0.00146
RRIRQRPPRLPRPRPRPATGPRP | 0.0181
RRIRLRPPRLPRPRPRPTTCPRP | 0.0385
RRIRFRPPRLPRPRPRPCWPPRP | 0.0203

Sequence | shrunken log2 fold change
RRIRARPPRLPRPRPRPIWMPRP | -0.00518
RRIRMRPPRLPRPRPRPVDPPRP | 0.0473
RRIRVRPPRLPRPRPRPMLHPRP | -0.192
RRIRQRPPRLPRPRPRPNQKPRP | -0.0966
RRIRVRPPRLPRPRPRPTYSPRP | -0.0431
RRIRMRPPRLPRPRPRPKSWPRP | 1.11
RRIRGRPPRLPRPRPRPKGKPRP | 1.16
RRIRCRPPRLPRPRPRPHEFPRP | -0.267
RRIRNRPPRLPRPRPRPPYSPRP | -0.604
RRIRQRPPRLPRPRPRPGKTPRP | -0.00992
RRIRPRPPRLPRPRPRPETIPRP | -0.157
RRIRFRPPRLPRPRPRPIMLPRP | -0.205
RRIRNRPPRLPRPRPRPKAPPRP | -0.0518
RRIRERPPRLPRPRPRPVAIPRP | -0.121
RRIRDRPPRLPRPRPRPSREPRP | -0.0011
RRIRARPPRLPRPRPRPICTPRP | 0.197
RRIRRRPPRLPRPRPRPYYCPRP | -0.132
RRIRLRPPRLPRPRPRPFREPRP | -0.0266
RRIRIRPPRLPRPRPRPNEEPRP | -0.179
RRIRKRPPRLPRPRPRPGIRPRP | 0.267
RRIRRRPPRLPRPRPRPMFTPRP | 0.0616
RRIRHRPPRLPRPRPRPNCSPRP | 0.0841
RRIRWRPPRLPRPRPRPMQQPRP | 0.056
RRIRPRPPRLPRPRPRPYHEPRP | -0.348
RRIRVRPPRLPRPRPRPPFWPRP | 0.46

Sequence | shrunken log2 fold change
RRIRGRPPRLPRPRPRPSDQPRP | 0.796
RRIRYRPPRLPRPRPRPNYCPRP | -1.16
RRIRFRPPRLPRPRPRPHSTPRP | -0.0436
RRIRRRPPRLPRPRPRPWACPRP | 0.0634
RRIRLRPPRLPRPRPRPFWPPRP | 0.184
RRIRKRPPRLPRPRPRPNQHPRP | 0.0449
RRIRFRPPRLPRPRPRPCWMPRP | -0.0459
RRIRSRPPRLPRPRPRPCMKPRP | -1.6
RRIRLRPPRLPRPRPRPPSGPRP | 0.0718
RRIRYRPPRLPRPRPRPCTRPRP | -0.111
RRIRRRPPRLPRPRPRPGHEPRP | 0.00414
RRIRRRPPRLPRPRPRPNTSPRP | -0.116
RRIRFRPPRLPRPRPRPFGEPRP | 0.135
RRIRMRPPRLPRPRPRPFDIPRP | -0.126
RRIRDRPPRLPRPRPRPDCGPRP | 0.315
RRIRERPPRLPRPRPRPKFNPRP | -0.558
RRIRHRPPRLPRPRPRPEDIPRP | -0.00674
RRIRNRPPRLPRPRPRPEAGPRP | -0.0775
RRIRRRPPRLPRPRPRPQAQPRP | 0.0393
RRIRQRPPRLPRPRPRPIMRPRP | 0.0932
RRIRVRPPRLPRPRPRPYVLPRP | -1.12
RRIRNRPPRLPRPRPRPFHWPRP | -0.186
RRIRKRPPRLPRPRPRPPYHPRP | 0.0273
RRIRRRPPRLPRPRPRPNAWPRP | 0.597
RRIRCRPPRLPRPRPRPGWGPRP | 0.42
